Tests used:
[1] = system: immortalized murine embryonic fibroblasts (Mef); experiment: Pooled negative selection RNAi screening (deep sequencing); format: cell-based; conditions: deep sequencing reads, on dox compared to initial representation
Summary of the method: (§1)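 A pool of 1230 tet-regulated shRNAs (TRMPV-type) was retrovirally transduced at mostly single copy and ~1000-fold representation into tet-on MLL/AF9+Nras AML cells or immortalized murine embryonic fibroblasts, then cultured on or off doxycycline. shRNA-expressing cells were FACS-sorted, and shRNA representation was quantified by PCR and deep sequencing of genomic DNA, with depletion on dox compared against t0 and off dox.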

[2] = system: tet-on competent MLL/AF9+Nras AML; experiment: as above; format: cell-based, mouse; conditions: deep sequencing reads, On Dox compared to T0
Summary of the method: as §1

[3] = system: normal hematopoietic cells; experiment: Dual-color competition assay of hematopoietic reconstitution in vivo; conditions: 4 weeks after transplantation, LMN-GFP vs mCherry control
Protocol: LMN vectors harboring shRNAs are transduced into fetal livers. Infected cells are subsequently transplanted into lethally irradiated recipients. This assay compares the relative contribution of the experimental shRNA (in an LMN vector harboring a GFP marker) to a control, neutral shRNA (in an LMN vector harboring a red fluorescent protein marker (mCherry)). The effect of the experimental shRNA on hematopoesis is assessed by the ratio of these two markers in subsets of peripheral blood cells, or bone marrow or spleen, measured at 4 weeks.
As an additional verification that therapy resistant AML leukemias harbor a unique sensitivity to inhibition of the identified epigenetic pathways, the influence of the epigenetics shRNAs on normal hematopoiesis was also examined in vivo following retroviral transduction of LMN (MSCV-miR30/shRNA-PGK-Neo-IRES-GFP; constructed by inserting a miR30-cassette and a PGK-NeomycinR-IRES-GFP cassette in the MSCV-backbone (Clontech)) into E13.5 fetal livers and subsequent transplantation of infected cells into lethally irradiated recipients (FIG. 27). This assay compares the relative contribution of the experimental shRNA vector (linked with GFP) to control, neutral shRNA LMN vector that harbors the red fluorescent protein (mCherry). At 4 weeks following transplantation of the mixed GFP+ and mCherry+ cells into recipient animals, the ratio of these two colors is measured in subsets of peripheral blood cells of various hematopoietic lineages or in bone marrow and spleens by co-staining with surface markers (e.g. Mac1, Gr1 for myeloid, B220 for B-lymphoid).

Hepa1.6 cells = experiment: In vitro competition assay in Hepa1.6 cells; format: cell-based, mouse; conditions: five passages 1:8
Text: Two days after transduction with a GFP-tagged vector, the number of fluorescent cells was quantified. Cells were passaged 1:8 five times, and the number of GFPpositive transduced cells was quantified at each passage.

HCT116 cells = experiment: HCT116 proliferation assay: cell counts of shRNA-transduced cultures; format: cell-based, human; conditions: 5 days post-infection; normalized to EBNA1mi1666 and Lucifmi203 cultures
Protocol: HCT116 cultures in 24-well plates were infected separately with amphotropic retrovirus encoding 254 different shRNAs targeting 83 cell cycle and/or E2F regulated genes. On day 1 following infection each culture was suspended in media containing 1.5 μg/mL puromycin to select for cells transduced with the hairpins, then seeded to 6-well plates. On day 5 following infection, cells in each culture were suspended in media and counted using a hemacytometer. Results for each culture were normalized to the average of the number of cells counted in cultures transduced with hairpins targeting either of two different genes not endogenous to HCT116 cells (EBNA1 and Ff-luciferase).
About 24 hours prior to infection, 150,000 HCT116 cells were seeded per well of a 24-well plate in 0.4 mL DMEM+10% FBS. At the time of the first round of infection, culture media was aspirated from each HCT116 culture and 0.5 mL media containing virus, obtained from ˜36-hour post-transfection packaging cell culture as described above, was added to each HCT116 culture. Each HCT116 culture was infected with virus encoding a particular shRNA. […]
About 24 hours after the second round of infection of the HCT116 cultures, cells from each culture were suspended and seeded to 6-well plates in 2 mL DMEM+10% FBS+1.5 μg/mL puromycin per well. […] Following two more days of growth (day 5 post-infection), cells in each culture were suspended in complete DMEM and cell numbers per culture were counted using a hemacytometer. […]
In each experiment, HCT116 cells were also transduced with hairpins against EBNA1 (EBNA1mi1666) and Ff-luciferase (lucifmi203). […] Similar to cultures transduced with other shRNAs, on day 5 post-infection, HCT116 cells in cultures transduced with either EBNA1mi1666 or Lucifmi203 were suspended and counted using a hemacytometer. […]
The average cell number in HCT116 cultures transduced with EBNA1mi1666 and Lucifmi203 was calculated for each experiment and cell numbers in cultures transduced with the other shRNAs in the given experiment were normalized to this value. […]

B1: Kit.1241: neutral control shRNA, SEQ ID NO: 194 (nucleic acid)
chain: TGCTGTTGACAGTGAGCGATTCCGTGACATTCAACGTTTATAGTGAAGCCACAGATGTATAAACGTTGAATGTCACGGAAGTGCCTACTGCCTCGGA
[1]
  Fold depletion in Mef: 0.99 Fold
[2]
  Fold depletion in AML: 1.88 Fold

B2: Ptgs2.284: neutral control shRNA, SEQ ID NO: 211 (nucleic acid)
chain: TGCTGTTGACAGTGAGCGAAAGAATCAAATTACTGCTGAATAGTGAAGCCACAGATGTATTCAGCAGTAATTTGATTCTTGTGCCTACTGCCTCGGA
[1]
  Fold depletion in Mef: 1.21 Fold
[2]
  Fold depletion in AML: 0.34 Fold

B3: Ptgs2.1082: neutral control shRNA, SEQ ID NO: 209 (nucleic acid)
chain: TGCTGTTGACAGTGAGCGCCAAGATAGTGATCGAAGACTATAGTGAAGCCACAGATGTATAGTCTTCGATCACTATCTTGATGCCTACTGCCTCGGA
[1]
  Fold depletion in Mef: 0.51 Fold
[2]
  Fold depletion in AML: 0.51 Fold

B4: BRAF.3826: neutral control shRNA, SEQ ID NO: 192 (nucleic acid)
chain: TGCTGTTGACAGTGAGCGCCCCATTGTTTCTTCCAACTTATAGTGAAGCCACAGATGTATAAGTTGGAAGAAACAATGGGATGCCTACTGCCTCGGA
[1]
  Fold depletion in Mef: 0.87 Fold
[2]
  Fold depletion in AML: 0.92 Fold

B5: Eed.1829: shRNA targeting Eed; probably Eed.1820, SEQ ID NO: 227 (nucleic acid)
guide: TGCTGTTGACAGTGAGCGCTAGAAGTAATGTATCTTGCTATAGTGAAGCCACAGATGTATAGCAAGATACATTACTTCTATTGCCTACTGCCTCGGA
[3]
  impact on proliferation of normal hematopoietic cells in vivo: little, if any impact

B6: Mn1.5864: neutral control shRNA, SEQ ID NO: 208 (nucleic acid)
chain: TGCTGTTGACAGTGAGCGCATCGCTATTGCACATGTATAATAGTGAAGCCACAGATGTATTATACATGTGCAATAGCGATTTGCCTACTGCCTCGGA
[1]
  Fold depletion in Mef: 1.09 Fold
[2]
  Fold depletion in AML: 0.61 Fold

B7: Renilla.713: neutral control shRNA, SEQ ID NO: 213 (nucleic acid)
chain: TGCTGTTGACAGTGAGCGCAGGAATTATAATGCTTATCTATAGTGAAGCCACAGATGTATAGATAAGCATTATAATTCCTATGCCTACTGCCTCGGA
[1]
  Fold depletion in Mef: 1.02 Fold
[2]
  Fold depletion in AML: 1.29 Fold

B8: shPCNA.538: shRNA, SEQ ID NO: 56 (nucleic acid)
chain: TGCTGTTGACAGTGAGCGCGGAGTACAGCTGTGTAATAAATAGTGAAGCCACAGATGTATTTATTACACAGCTGTACTCCTTGCCTACTGCCTCGGA
Hepa1.6 cells
  competition with uninfected GFP-negative cells: outcompeted by uninfected, GFP-negative cells

B9: Mn1.5760: neutral control shRNA, SEQ ID NO: 207 (nucleic acid)
chain: TGCTGTTGACAGTGAGCGCTTGGTTTAGCAGGAAGAATAATAGTGAAGCCACAGATGTATTATTCTTCCTGCTAAACCAAATGCCTACTGCCTCGGA
[1]
  Fold depletion in Mef: 0.91 Fold
[2]
  Fold depletion in AML: 0.38 Fold

B10: Trp53.1224: neutral control shRNA, SEQ ID NO: 214 (nucleic acid)
chain: TGCTGTTGACAGTGAGCGCCCACTACAAGTACATGTGTAATAGTGAAGCCACAGATGTATTACACATGTACTTGTAGTGGATGCCTACTGCCTCGGA
[1]
  Fold depletion in Mef: 0.84 Fold
[2]
  Fold depletion in AML: 0.10 Fold

B11: BRAF.3750: neutral control shRNA, SEQ ID NO: 191 (nucleic acid)
chain: TGCTGTTGACAGTGAGCGCTAGCATAATGACAATTATTTATAGTGAAGCCACAGATGTATAAATAATTGTCATTATGCTAATGCCTACTGCCTCGGA
[1]
  Fold depletion in Mef: 1.08 Fold
[2]
  Fold depletion in AML: 0.76 Fold

B12: Suz12.1676: shRNA, SEQ ID NO: 75 (nucleic acid)
guide: TGCTGTTGACAGTGAGCGATAGGATAGATGTTTCAATCAATAGTGAAGCCACAGATGTATTGATTGAAACATCTATCCTAGTGCCTACTGCCTCGGA
[3]
  impact on proliferation of normal hematopoietic cells in vivo: little, if any impact

B13: Ptgs2.3711: neutral control shRNA, SEQ ID NO: 212 (nucleic acid)
chain: TGCTGTTGACAGTGAGCGCAACGTTCATGGATAAATTCTATAGTGAAGCCACAGATGTATAGAATTTATCCATGAACGTTATGCCTACTGCCTCGGA
[1]
  Fold depletion in Mef: 1.46 Fold
[2]
  Fold depletion in AML: 1.38 Fold

B14: Ptgs2.2058: neutral control shRNA, SEQ ID NO: 210 (nucleic acid)
chain: TGCTGTTGACAGTGAGCGCCCGGTGTTTGTCCTTTAAATATAGTGAAGCCACAGATGTATATTTAAAGGACAAACACCGGATGCCTACTGCCTCGGA
[1]
  Fold depletion in Mef: 1.27 Fold
[2]
  Fold depletion in AML: 1.78 Fold

B15: Smarcd1.1858: shRNA, SEQ ID NO: 70 (nucleic acid)
guide: TGCTGTTGACAGTGAGCGCTAGGACCTCTAGATAGTGTTATAGTGAAGCCACAGATGTATAACACTATCTAGAGGTCCTATTGCCTACTGCCTCGGA
[3]
  impact on proliferation of normal hematopoietic cells in vivo: little, if any impact

B16: Orc2mil903: shRNA targeting ORC2, SEQ ID NO: 18 (nucleic acid)
chain: TGCTGTTGACAGTGAGCGAGGAACTGATGGAGTAGAGTATTAGTGAAGCCACAGATGTAATACTCTACTCCATCAGTTCCCTGCCTACTGCCTCGGA
HCT116 cells
  Cell # in culture/average cell number in negative control cultures: 0.7115

B17: Orc2mil981: shRNA targeting ORC2, SEQ ID NO: 19 (nucleic acid)
chain: TGCTGTTGACAGTGAGCGAGAGGCTTGAAGCTTTCCTTTATAGTGAAGCCACAGATGTATAAAGGAAAGCTTCAAGCCTCCTGCCTACTGCCTCGGA
HCT116 cells
  Cell # in culture/average cell number in negative control cultures: 0.8496

B18: mi550: shRNA targeting ORC1, SEQ ID NO: 17 (nucleic acid)
chain: TGCTGTTGACAGTGAGCGCGGAAATATTCTGGTATGATTATAGTGAAGCCACAGATGTATAATCATACCAGAATATTTCCTTGCCTACTGCCTCGGA
HCT116 cells
  Cell # in culture/average cell number in negative control cultures: 0.8719

B19: BRAF.5053: neutral control shRNA, SEQ ID NO: 193 (nucleic acid)
chain: TGCTGTTGACAGTGAGCGCTAGGGTGATGTCTCACTTGAATAGTGAAGCCACAGATGTATTCAAGTGAGACATCACCCTATTGCCTACTGCCTCGGA
[1]
  Fold depletion in Mef: 0.33 Fold
[2]
  Fold depletion in AML: 0.66 Fold

Reference: US8895526B2, “Identification of RNAI targets and use of RNAI for rational therapy of chemotherapy-resistant leukemia and other cancers” (Cold Spring Harbor Laboratory, priority 2009, dated 2014)
